Test results from patent publication US20260274985A1 (MYTHIC THERAPEUTICS, published 2026).

T1: Human TROP2 Protein, His Tag (Acro Biosystems) (human, UniProt P09758 27-274)
T1 construct: Bought protein; also called TACSTD2; not shown: His tag
T1 sequence: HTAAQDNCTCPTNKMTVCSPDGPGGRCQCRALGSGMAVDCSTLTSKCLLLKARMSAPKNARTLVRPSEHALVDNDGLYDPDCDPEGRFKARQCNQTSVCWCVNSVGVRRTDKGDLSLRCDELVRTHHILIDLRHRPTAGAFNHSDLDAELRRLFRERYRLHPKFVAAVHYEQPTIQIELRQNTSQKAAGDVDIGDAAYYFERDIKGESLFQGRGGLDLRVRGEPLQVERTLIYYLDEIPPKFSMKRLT

T2: TROP2 on TROP2-positive NCI-H1975 cells (human, UniProt P09758 27-323)
T2 construct: whole, on cells
T2 sequence (looked up): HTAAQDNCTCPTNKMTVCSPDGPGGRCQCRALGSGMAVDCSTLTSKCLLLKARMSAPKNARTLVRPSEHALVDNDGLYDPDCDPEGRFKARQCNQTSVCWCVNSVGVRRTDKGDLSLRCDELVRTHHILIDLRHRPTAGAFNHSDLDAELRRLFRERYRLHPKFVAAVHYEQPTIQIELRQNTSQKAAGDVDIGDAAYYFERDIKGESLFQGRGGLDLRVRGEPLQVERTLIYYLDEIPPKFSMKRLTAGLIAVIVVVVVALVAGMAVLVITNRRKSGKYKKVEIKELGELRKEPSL

T3: Human TROP2 Protein, His Tag (Acro Biosystems) (human, UniProt P09758 27-274)
T3 construct: not shown: His tag
T3 sequence (looked up): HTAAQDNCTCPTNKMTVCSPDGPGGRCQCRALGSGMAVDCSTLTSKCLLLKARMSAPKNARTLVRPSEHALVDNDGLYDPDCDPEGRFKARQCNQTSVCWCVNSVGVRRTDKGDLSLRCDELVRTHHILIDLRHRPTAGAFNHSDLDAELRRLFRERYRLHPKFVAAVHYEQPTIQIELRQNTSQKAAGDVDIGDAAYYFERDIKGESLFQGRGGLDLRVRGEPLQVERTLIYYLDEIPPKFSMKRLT


Key:
[1] = molecular target: T1, Human TROP2 Protein, His Tag (Acro …); experiment: BLI (Octet), antibody on anti-human Fc sensor, human TROP2-His in solution; legend: 3=No binding
[2] = molecular target: T2, TROP2 on TROP2-positive NCI-H1975 cells; experiment: binding to TROP2-positive NCI-H1975 cells at pH 6.7
[3] = molecular target: T3, Human TROP2 Protein, His Tag (Acro …); experiment: Octet (BLI); antigen and pH not given
[4] = molecular target: T2, TROP2 on TROP2-positive NCI-H1975 cells; experiment: binding to TROP2-positive NCI-H1975 cells at pH 5.4
[5] = molecular target: T2, TROP2 on TROP2-positive NCI-H1975 cells; experiment: binding to TROP2-positive NCI-H1975 cells at pH 7.4

Binder | binding result [1] | IC50 [2] [nM] | Kd [3] [nM] | Octet response at 33.33 nM (Y-Axis) nm [3] [nm] | IC50 [4] [nM] | IC50 [5] [nM]
MYT12413 (hu7E6SVG variant, HCV substitutions at 33, 106) (antibody, V domains shown) VH: QVQLQESGPGLVKPSETLSLTCTVSGGSISSYHVHWIRQPPGKGLEWIGVIWTSGVTDYNSALMGRVTISVDTSKNQFSLKLSSVTAADTAVYYCARDGDYDRYTHDYWGQGTLVTVSS VL: DIVMTQSPDSLAVSLGERATINCRASKSVSTSGYSYMHWYQQKPGQPPKLLIYLASNLESGVPDRFSGSGSGTDFTLTISSLQAEDVAVYYCQHSRELPYTFGQGTKLEIK | no binding (tested: 50 nM) |  |  |  |  | 
MYT11704 (antibody, human IgG1, V domains shown, IgG; also called hu7E6SVG WT; hu7E6SVG) VH: QVQLQESGPGLVKPSETLSLTCTVSGGSISSYGVHWIRQPPGKGLEWIGVIWTSGVTDYNSALMGRVTISVDTSKNQFSLKLSSVTAADTAVYYCARDGDYDRYTMDYWGQGTLVTVSS VL: DIVMTQSPDSLAVSLGERATINCRASKSVSTSGYSYMHWYQQKPGQPPKLLIYLASNLESGVPDRFSGSGSGTDFTLTISSLQAEDVAVYYCQHSRELPYTFGQGTKLEIK |  | 0.97 | 4.4 | 0.118 | 1.29 | 0.98
MYT12462 (hu7E6SVG variant, LCV substitutions at 59, 94, 101 (Ala at 94)) (antibody, V domains shown, Full IgG in Expi293 supernatant) VH: QVQLQESGPGLVKPSETLSLTCTVSGGSISSYGVHWIRQPPGKGLEWIGVIWTSGVTDYNSALMGRVTISVDTSKNQFSLKLSSVTAADTAVYYCARDGDYDRYTMDYWGQGTLVTVSS VL: DIVMTQSPDSLAVSLGERATINCRASKSVSTSGYSYMHWYQQKPGQPPKLLIYLASNLHSGVPDRFSGSGSGTDFTLTISSLQAEDVAVYYCQASRELPYHFGQGTKLEIK | no binding (tested: 50 nM) |  |  |  |  | 
MYT12456 (hu7E6SVG variant, LCV substitutions at 59, 60, 97) (antibody, V domains shown, Full IgG in Expi293 supernatant) VH: QVQLQESGPGLVKPSETLSLTCTVSGGSISSYGVHWIRQPPGKGLEWIGVIWTSGVTDYNSALMGRVTISVDTSKNQFSLKLSSVTAADTAVYYCARDGDYDRYTMDYWGQGTLVTVSS VL: DIVMTQSPDSLAVSLGERATINCRASKSVSTSGYSYMHWYQQKPGQPPKLLIYLASNLHHGVPDRFSGSGSGTDFTLTISSLQAEDVAVYYCQHSRHLPYTFGQGTKLEIK | no binding (tested: 50 nM) |  |  |  |  | 
MYT12465 (hu7E6SVG variant, LCV substitutions at 60, 93, 97) (antibody, V domains shown, Full IgG in Expi293 supernatant) VH: QVQLQESGPGLVKPSETLSLTCTVSGGSISSYGVHWIRQPPGKGLEWIGVIWTSGVTDYNSALMGRVTISVDTSKNQFSLKLSSVTAADTAVYYCARDGDYDRYTMDYWGQGTLVTVSS VL: DIVMTQSPDSLAVSLGERATINCRASKSVSTSGYSYMHWYQQKPGQPPKLLIYLASNLEHGVPDRFSGSGSGTDFTLTISSLQAEDVAVYYCHHSRHLPYTFGQGTKLEIK | no binding (tested: 50 nM) |  |  |  |  | 
MYT12457 (hu7E6SVG variant, LCV substitutions at 59, 60, 101) (antibody, V domains shown, Full IgG in Expi293 supernatant) VH: QVQLQESGPGLVKPSETLSLTCTVSGGSISSYGVHWIRQPPGKGLEWIGVIWTSGVTDYNSALMGRVTISVDTSKNQFSLKLSSVTAADTAVYYCARDGDYDRYTMDYWGQGTLVTVSS VL: DIVMTQSPDSLAVSLGERATINCRASKSVSTSGYSYMHWYQQKPGQPPKLLIYLASNLHHGVPDRFSGSGSGTDFTLTISSLQAEDVAVYYCQHSRELPYHFGQGTKLEIK | no binding (tested: 50 nM) |  |  |  |  | 
MYT12459 (antibody, human IgG1, V domains shown, IgG; also called hu7E6SVG LCC his scan variant) VH: QVQLQESGPGLVKPSETLSLTCTVSGGSISSYGVHWIRQPPGKGLEWIGVIWTSGVTDYNSALMGRVTISVDTSKNQFSLKLSSVTAADTAVYYCARDGDYDRYTMDYWGQGTLVTVSS VL: DIVMTQSPDSLAVSLGERATINCRASKSVSTSGYSYMHWYQQKPGQPPKLLIYLASNLHSGVPDRFSGSGSGTDFTLTISSLQAEDVAVYYCHHSRHLPYTFGQGTKLEIK |  | 1.67 | 6.02 | 0.0906 | ~30 | 1.42
MYT12461 (hu7E6SVG variant, LCV substitutions at 59, 94, 97 (Ala at 94)) (antibody, V domains shown, Full IgG in Expi293 supernatant) VH: QVQLQESGPGLVKPSETLSLTCTVSGGSISSYGVHWIRQPPGKGLEWIGVIWTSGVTDYNSALMGRVTISVDTSKNQFSLKLSSVTAADTAVYYCARDGDYDRYTMDYWGQGTLVTVSS VL: DIVMTQSPDSLAVSLGERATINCRASKSVSTSGYSYMHWYQQKPGQPPKLLIYLASNLHSGVPDRFSGSGSGTDFTLTISSLQAEDVAVYYCQASRHLPYTFGQGTKLEIK | no binding (tested: 50 nM) |  |  |  |  | 
MYT12460 (hu7E6SVG variant, LCV substitutions at 59, 93, 101) (antibody, V domains shown, Full IgG in Expi293 supernatant) VH: QVQLQESGPGLVKPSETLSLTCTVSGGSISSYGVHWIRQPPGKGLEWIGVIWTSGVTDYNSALMGRVTISVDTSKNQFSLKLSSVTAADTAVYYCARDGDYDRYTMDYWGQGTLVTVSS VL: DIVMTQSPDSLAVSLGERATINCRASKSVSTSGYSYMHWYQQKPGQPPKLLIYLASNLHSGVPDRFSGSGSGTDFTLTISSLQAEDVAVYYCHHSRELPYHFGQGTKLEIK | no binding (tested: 50 nM) |  |  |  |  | 
MYT12464 (hu7E6SVG variant, LCV substitutions at 60, 93, 94 (Ala at 94)) (antibody, V domains shown, Full IgG in Expi293 supernatant) VH: QVQLQESGPGLVKPSETLSLTCTVSGGSISSYGVHWIRQPPGKGLEWIGVIWTSGVTDYNSALMGRVTISVDTSKNQFSLKLSSVTAADTAVYYCARDGDYDRYTMDYWGQGTLVTVSS VL: DIVMTQSPDSLAVSLGERATINCRASKSVSTSGYSYMHWYQQKPGQPPKLLIYLASNLEHGVPDRFSGSGSGTDFTLTISSLQAEDVAVYYCHASRELPYTFGQGTKLEIK | no binding (tested: 50 nM) |  |  |  |  | 
MYT12458 (hu7E6SVG variant, LCV substitutions at 59, 93, 94 (Ala at 94)) (antibody, V domains shown, Full IgG in Expi293 supernatant) VH: QVQLQESGPGLVKPSETLSLTCTVSGGSISSYGVHWIRQPPGKGLEWIGVIWTSGVTDYNSALMGRVTISVDTSKNQFSLKLSSVTAADTAVYYCARDGDYDRYTMDYWGQGTLVTVSS VL: DIVMTQSPDSLAVSLGERATINCRASKSVSTSGYSYMHWYQQKPGQPPKLLIYLASNLHSGVPDRFSGSGSGTDFTLTISSLQAEDVAVYYCHASRELPYTFGQGTKLEIK | no binding (tested: 50 nM) |  |  |  |  | 
MYT11566 (antibody, human IgG1, V domains shown, IgG; also called Sacituzumab WT; Sacituzumab) VH: QVQLQQSGSELKKPGASVKVSCKASGYTFTNYGMNWVKQAPGQGLKWMGWINTYTGEPTYTDDFKGRFAFSLDTSVSTAYLQISSLKADDTAVYFCARGGFGSSYWYFDVWGQGSLVTVSS VL: DIQLTQSPSSLSASVGDRVSITCKASQDVSIAVAWYQQKPGKAPKLLIYSASYRYTGVPDRFSGSGSGTDFTLTISSLQPEDFAVYYCQQHYITPLTFGAGTKVEIK |  | 0.94 | 0.6 | 0.157 | 1.15 | 1.05
MYT13370 (antibody, human IgG1, V domains shown, IgG; also called Sacituzumab HC-LC pairing variant) VH: QVQLQQSGSELKKPGASVKVSCKASGYTFTNYGMNWVKQAPGQGLKWMGWINTYTGEPTYTDHFKGRFAFSLDTSVSTAYLQISSLKADDTAVYFCARGGFGSSYWYFDVWGQGSLVTVSS VL: DIQLTQSPSSLSASVGDRVSITCKASQDVHIAHAWYQQKPGKAPKLLIYSASYRYTGVPDRFSGSGSGTDFTLTISSLQPEDFAVYYCQQHYITPLTFGAGTKVEIK |  | 1.86 | 1.36 | 0.155 | ~45 | 0.84
MYT11614 (antibody, human IgG1, V domains shown, IgG; also called Sacituzumab LC variant) VH: QVQLQQSGSELKKPGASVKVSCKASGYTFTNYGMNWVKQAPGQGLKWMGWINTYTGEPTYTDDFKGRFAFSLDTSVSTAYLQISSLKADDTAVYFCARGGFGSSYWYFDVWGQGSLVTVSS VL: DIQLTQSPSSLSASVGDRVSITCKASQDVHIAVAWYQQKPGKAPKLLIYSASYRYTGVPDRFSGSGSGTDFTLTISSLQPEDFAVYYCQQHYITPLTFGAGTKVEIK |  | 1.06 | 0.75 | 0.149 | ~5 | 0.82
MYT13369 (antibody, human IgG1, V domains shown, IgG; also called Sacituzumab HC-LC pairing variant) VH: QVQLQQSGSELKKPGASVKVSCKASGYTFTNYGMNWVKQAPGQGLKWMGWINTYTGEPTYTHDFKGRFAFSLDTSVSTAYLQISSLKADDTAVYFCARGGFGSSYWYFDVWGQGSLVTVSS VL: DIQLTQSPSSLSASVGDRVSITCKASQDVHIAHAWYQQKPGKAPKLLIYSASYRYTGVPDRFSGSGSGTDFTLTISSLQPEDFAVYYCQQHYITPLTFGAGTKVEIK |  | 1.02 | 0.14 | 0.167 | ~25 | 0.63
